Measurements from patent publication US20160274129.

Molecular target: T1, α-fructosyl-valyl-histidyl-leucyl-threonyl-proryl-glutamic acid
T1 chain: VHLTPE

Protein	αF6P oxidation activity (crude enzyme; αFVH oxidation activity = 100) (relative (αFVH = 100))	αF6P/αFV	αF6P/αFVH	αF6P oxidation activity ratio (crude enzyme; CFP-T7-H6 = 100) (relative (CFP-T7-H6 = 100))	αF6P oxidation activity ratio (crude enzyme; CFP-T7-H2 = 100) (relative (CFP-T7-H2 = 100))
CFP-T7-H3 (protein) MTSNRADTRVIVVGGGGTIGSSTALHLVRSGYAPANITVLDTFEIPSAQSAGHDLNKIMGIALRNKVDLQMSLEARQMWKEDELFQPFFHNTGRMDCEHTPEGIEDLKKFYQALHDAGAGLEKTHAWLDNEDEILSKMPLLQRDQIQGWKAIWSQDGGWLAAAKAINAIGQFLKERGVKFGFGGAGSFKQPLFDDEGTTCIGVETADGTKYYADKVVLAAGAWSPTLVDLEDQCCSKAWVYAHIQLTPEEAAEYKGVPVVYNGEFGFFFEPDEFGVIKVCDEFPGFSRFKEHQPYGAPSPKRISVPRSHAKHPTDTYPDASEVSIKKAIATFLPRFQDKELFNRALCWCTDTADAALLMCEHPKWKNFILATGDSGHSFKILPNVGKYVVELIEGRLPEEMAYQWRWRPGGDALKSRRAAPPKDLADMPGWKHDPKL	0.0298	0.000205	0.000298	–	–
CFP-T7-H4 (protein) MTSNRADTRVIVVGGGGTIGSSTALHLVRSGYAPANITVLDTFEIPSAQSAGHDLNKIMGIALRNKVDLQMSLEARQMWKEDELFQPFFHNTGRMDCEHTPEGIEDLKKYYQALHDAGAGLEKTHAWLDNEDEILSKMPLLQRDQIQGWKAIWSQDGGWLAAAKAINAIGQFLKERGVKFGFGGAGSFKQPLFDDEGTTCIGVETADGTKYYADKVVLAAGAWSPTLVDLEDQCCSKAWVYAHIQLTPEEAAEYKGVPVVYNGEFGFFFEPDEFGVIKVCDEFPGFSRFKEHQPYGAPSPKRISVPRSHAKHPTDTYPDASEVSIKKAIATFLPRFQDKELFNRALCWCTDTADAALLMCEHPKWKNFILATGDSGHSFKILPNVGKYVVELIEGRLPEEMAYQWRWRPGGDALKSRRAAPPKDLADMPGWKHDPKL	0.0341	0.000319	0.000341	–	–
CFP-T7-H9 (protein) MTSNRADTRVIVVGGGGTIGSSTALHLVRSGYAPANITVLDTFEIPSAQSAGHDLNKIMGIDLHNKVDLQMSLEARQMWKEDELFQPFFHNTGRMDCEHTPEGIEDLKKLYQALHDAGAGLEKTHAWLDNEDEILSKMPLLQRDQIQGWKAIWSQDGGWLAAAKAINAIGQFLKERGVKFGFGGAGSFKQPLFDDEGTTCIGVETADGTKYYADKVVLAAGAWSPTLVDLEDQCCSKAWVYAHIQLTPEEAAEYKGVPVVYNGEFGFFFEPDEFGVIKVCDEFPGFSRFKEHQPYGAPSPKRISVPRSHAKHPTDTYPDASEVSIKKAIATFLPRFQDKELFNRALCWCTDTADAALLMCEHPKWKNFILATGDSGHSFKILPNVGKYVVELIEGRLPEEMAYQWRWRPGGDALKSRRAAPPKDLADMPGWKHDPKL	–	–	–	44	–
CFP-T7-H2-62E (protein) MTSNRADTRVIVVGGGGTIGSSTALHLVRSGYAPANITVLDTFEIPSAQSAGHDLNKIMGIELRNKVDLQMSLEARQMWKEDELFQPFFHNTGRMDCEHTPEGIEDLKKLYQALHDAGAGLEKTHAWLDNEDEILSKMPLLQRDQIQGWKAIWSQDGGWLAAAKAINAIGQFLKERGVKFGFGGAGSFKQPLFDDEGTTCIGVETADGTKYYADKVVLAAGAWSPTLVDLEDQCCSKAWVYAHIQLTPEEAAEYKGVPVVYNGEFGFFFEPDEFGVIKVCDEFPGFSRFKEHQPYGAPSPKRISVPRSHAKHPTDTYPDASEVSIKKAIATFLPRFQDKELFNRALCWCTDTADAALLMCEHPKWKNFILATGDSGHSFKILPNVGKYVVELIEGRLPEEMAYQWRWRPGGDALKSRRAAPPKDLADMPGWKHDPKL	–	–	–	–	21
CFP-T7-H2-62Q (protein) MTSNRADTRVIVVGGGGTIGSSTALHLVRSGYAPANITVLDTFEIPSAQSAGHDLNKIMGIQLRNKVDLQMSLEARQMWKEDELFQPFFHNTGRMDCEHTPEGIEDLKKLYQALHDAGAGLEKTHAWLDNEDEILSKMPLLQRDQIQGWKAIWSQDGGWLAAAKAINAIGQFLKERGVKFGFGGAGSFKQPLFDDEGTTCIGVETADGTKYYADKVVLAAGAWSPTLVDLEDQCCSKAWVYAHIQLTPEEAAEYKGVPVVYNGEFGFFFEPDEFGVIKVCDEFPGFSRFKEHQPYGAPSPKRISVPRSHAKHPTDTYPDASEVSIKKAIATFLPRFQDKELFNRALCWCTDTADAALLMCEHPKWKNFILATGDSGHSFKILPNVGKYVVELIEGRLPEEMAYQWRWRPGGDALKSRRAAPPKDLADMPGWKHDPKL	–	–	–	–	11
CFP-T7-H6 (protein) MTSNRADTRVIVVGGGGTIGSSTALHLVRSGYAPANITVLDTFEIPSAQSAGHDLNKIMGIDLRNKVDLQMSLEARQMWKEDELFQPFFHNTGRMDCEHTPEGIEDLKKLYQALHDAGAGLEKTHAWLDNEDEILSKMPLLQRDQIQGWKAIWSQDGGWLAAAKAINAIGQFLKERGVKFGFGGAGSFKQPLFDDEGTTCIGVETADGTKYYADKVVLAAGAWSPTLVDLEDQCCSKAWVYAHIQLTPEEAAEYKGVPVVYNGEFGFFFEPDEFGVIKVCDEFPGFSRFKEHQPYGAPSPKRISVPRSHAKHPTDTYPDASEVSIKKAIATFLPRFQDKELFNRALCWCTDTADAALLMCEHPKWKNFILATGDSGHSFKILPNVGKYVVELIEGRLPEEMAYQWRWRPGGDALKSRRAAPPKDLADMPGWKHDPKL	3	0.00347	0.03	–	513
CFP-T7-H8 (protein) MTSNRADTRVIVVGGGGTIGSSTALHLVRSGYAPANITVLDTFEIPSAQSAGHDLNKIMGIDLENKVDLQMSLEARQMWKEDELFQPFFHNTGRMDCEHTPEGIEDLKKLYQALHDAGAGLEKTHAWLDNEDEILSKMPLLQRDQIQGWKAIWSQDGGWLAAAKAINAIGQFLKERGVKFGFGGAGSFKQPLFDDEGTTCIGVETADGTKYYADKVVLAAGAWSPTLVDLEDQCCSKAWVYAHIQLTPEEAAEYKGVPVVYNGEFGFFFEPDEFGVIKVCDEFPGFSRFKEHQPYGAPSPKRISVPRSHAKHPTDTYPDASEVSIKKAIATFLPRFQDKELFNRALCWCTDTADAALLMCEHPKWKNFILATGDSGHSFKILPNVGKYVVELIEGRLPEEMAYQWRWRPGGDALKSRRAAPPKDLADMPGWKHDPKL	–	–	–	2	–
CFP-T7-H7 (protein) MTSNRADTRVIVVGGGGTIGSSTALHLVRSGYAPANITVLDTFEIPSAQSAGHDLNKIMGIDLANKVDLQMSLEARQMWKEDELFQPFFHNTGRMDCEHTPEGIEDLKKLYQALHDAGAGLEKTHAWLDNEDEILSKMPLLQRDQIQGWKAIWSQDGGWLAAAKAINAIGQFLKERGVKFGFGGAGSFKQPLFDDEGTTCIGVETADGTKYYADKVVLAAGAWSPTLVDLEDQCCSKAWVYAHIQLTPEEAAEYKGVPVVYNGEFGFFFEPDEFGVIKVCDEFPGFSRFKEHQPYGAPSPKRISVPRSHAKHPTDTYPDASEVSIKKAIATFLPRFQDKELFNRALCWCTDTADAALLMCEHPKWKNFILATGDSGHSFKILPNVGKYVVELIEGRLPEEMAYQWRWRPGGDALKSRRAAPPKDLADMPGWKHDPKL	–	–	–	17	–
CFP-T7-H10 (protein) MTSNRADTRVIVVGGGGTIGSSTALHLVRSGYAPANITVLDTFEIPSAQSAGHDLNKIMGIDLRNKVDLQMSLEARQMWKEDELFQPFFHNTGRMDCEHTPEGIEALKKLYQALHDAGAGLEKTHAWLDNEDEILSKMPLLQRDQIQGWKAIWSQDGGWLAAAKAINAIGQFLKERGVKFGFGGAGSFKQPLFDDEGTTCIGVETADGTKYYADKVVLAAGAWSPTLVDLEDQCCSKAWVYAHIQLTPEEAAEYKGVPVVYNGEFGFFFEPDEFGVIKVCDEFPGFSRFKEHQPYGAPSPKRISVPRSHAKHPTDTYPDASEVSIKKAIATFLPRFQDKELFNRALCWCTDTADAALLMCEHPKWKNFILATGDSGHSFKILPNVGKYVVELIEGRLPEEMAYQWRWRPGGDALKSRRAAPPKDLADMPGWKHDPKL	–	–	–	301	–
CFP-T7-H2-62N (protein) MTSNRADTRVIVVGGGGTIGSSTALHLVRSGYAPANITVLDTFEIPSAQSAGHDLNKIMGINLRNKVDLQMSLEARQMWKEDELFQPFFHNTGRMDCEHTPEGIEDLKKLYQALHDAGAGLEKTHAWLDNEDEILSKMPLLQRDQIQGWKAIWSQDGGWLAAAKAINAIGQFLKERGVKFGFGGAGSFKQPLFDDEGTTCIGVETADGTKYYADKVVLAAGAWSPTLVDLEDQCCSKAWVYAHIQLTPEEAAEYKGVPVVYNGEFGFFFEPDEFGVIKVCDEFPGFSRFKEHQPYGAPSPKRISVPRSHAKHPTDTYPDASEVSIKKAIATFLPRFQDKELFNRALCWCTDTADAALLMCEHPKWKNFILATGDSGHSFKILPNVGKYVVELIEGRLPEEMAYQWRWRPGGDALKSRRAAPPKDLADMPGWKHDPKL	–	–	–	–	120
Cc95FX (protein) MAPSRANTSVIVVGGGGTIGSSTALHLVRSGYTPSNITVLDAYPIPSSQSAGNDLNKIMGIRLRNKVDLQLSLEARQMWREDDLFKEYFHNTGRLDCAHGEEGLADLRQAYQALLDANAGLEETTEWLDSEDEILKKMPLLSRDQIKGWKAVYSQDGGWLAAAKAINAIGEYLRAQGVKFGFGGAGSFKQPLLAEGVCIGVETVDGTRYYADKVVLAAGAWSPTLVELHEQCVSKAWVYGHIQLTPEEAAEYKNSPVVYNGDVGFFFEPNEHGVIKVCDEFPGFTRFKMHQPFGAKAPKRISVPRSHAKHPTDTIPDASEKSIRKAIATFLPKFTEKELFNRHLCWCTDTADAALLICEHPEWKNFVLATGDSGHSFKLLPNIGKHVVELLEGTLADDLAHAWRWRPGSGDALKSRRSAPAKDLADMPGWKHDDVVKSKL	0	0	0	–	–
Cc95FX-62D/63H/106K/110L/113K/353S (protein) MAPSRANTSVIVVGGGGTIGSSTALHLVRSGYTPSNITVLDAYPIPSSQSAGNDLNKIMGIDHRNKVDLQLSLEARQMWREDDLFKEYFHNTGRLDCAHGEEGLAKLRQLYQKLLDANAGLEETTEWLDSEDEILKKMPLLSRDQIKGWKAVYSQDGGWLAAAKAINAIGEYLRAQGVKFGFGGAGSFKQPLLAEGVCIGVETVDGTRYYADKVVLAAGAWSPTLVELHEQCVSKAWVYGHIQLTPEEAAEYKNSPVVYNGDVGFFFEPNEHGVIKVCDEFPGFTRFKMHQPFGAKAPKRISVPRSHAKHPTDTIPDASEKSIRKAIATFLPKFTEKELFNRHLCWCTDTADSALLICEHPEWKNFVLATGDSGHSFKLLPNIGKHVVELLEGTLADDLAHAWRWRPGSGDALKSRRSAPAKDLADMPGWKHDDVVKSKL	237	0.0144	2.37	–	–
